Reference: publication doi:10.1101/2022.04.29.490041

Molecular target: NSF_(E326Q):GFP (dominant-negative variant of NSF, GFP-tagged) (Arabidopsis thaliana) (UniProt Q9M0Y8)
Experiment: co-IP

Sequence of UniProt Q9M0Y8 (Q9M0Y8 whole entry E326Q): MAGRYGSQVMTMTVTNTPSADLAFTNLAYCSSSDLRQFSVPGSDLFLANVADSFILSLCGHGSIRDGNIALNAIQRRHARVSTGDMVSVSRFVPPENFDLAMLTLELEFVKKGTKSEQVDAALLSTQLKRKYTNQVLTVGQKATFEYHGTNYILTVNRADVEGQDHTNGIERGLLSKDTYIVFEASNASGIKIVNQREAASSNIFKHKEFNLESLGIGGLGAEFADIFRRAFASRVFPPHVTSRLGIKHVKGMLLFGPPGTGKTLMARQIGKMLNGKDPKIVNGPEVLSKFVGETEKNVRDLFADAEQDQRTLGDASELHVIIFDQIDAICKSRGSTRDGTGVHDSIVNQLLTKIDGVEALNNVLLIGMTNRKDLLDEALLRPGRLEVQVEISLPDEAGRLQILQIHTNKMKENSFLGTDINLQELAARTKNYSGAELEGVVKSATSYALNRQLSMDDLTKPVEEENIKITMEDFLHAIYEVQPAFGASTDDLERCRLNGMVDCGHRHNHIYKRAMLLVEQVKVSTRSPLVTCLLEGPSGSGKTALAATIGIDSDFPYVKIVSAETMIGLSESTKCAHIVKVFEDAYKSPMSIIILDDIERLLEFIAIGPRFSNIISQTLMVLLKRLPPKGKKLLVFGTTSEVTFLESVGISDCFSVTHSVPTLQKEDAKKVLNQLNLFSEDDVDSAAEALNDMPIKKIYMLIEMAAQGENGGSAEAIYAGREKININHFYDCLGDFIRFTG

fold increase of co-precipitation relative to wild-type NSF: 38 fold
Substance: KNOLLE (cytokinesis-specific Qa-SNARE) (natural protein)
